Results published in the supplement of paper PMC9732359.
± gives the uncertainty stated by the source.

Assay: protein stability index of a GFP-peptide fusion (yeast GPS) (PSI 1-4); higher = more stable; sorted into four equal gates, so the index is relative within each strain
Conditions: doa10∆
Summary of the method: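 The protein stability index combines read frequencies across sorting gates, each weighted by its gate number and then summed. To obtain those frequencies, a pooled yeast library of GFP fusions to tiled 17-residue yeast protein peptides, on a plasmid also expressing Cherry, was grown to mid-log phase in leucine-free medium. The cells were sorted into four equal gates by GFP/Cherry ratio before plasmid amplification by PCR and Illumina sequencing.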

Sequence | protein stability index
LESTIAETQGSKVVIDS [IRR1] | 2.9 ± 0.1
LESTKAETDYVDPKRLA [DSN1] | 2.96 ± 0.063
LESYLIVHHPYQSLKQI [SSN8] | 2.33 ± 0.052
LETDGVNLSEVMTVPGI [RPO21] | 2.75 ± 0.19
LEYMNTARINNRRLFKK [RRI2] | 2.5 ± 0.08
LEYYAMLSKTKVYYFQG [RPL30] | 2.4 ± 0.096
LFAGYTDNVIRVWQVMT [ASC1] | 1.61 ± 0.064
LFGQSQQPQTNTAPGLG [YGR119C/NUP57] | 2.68 ± 0.2
LFNKPPSTNAQNVNVPS [YOR098C/NUP1] | 3.15 ± 0.056
LFPVAAQDSLTVTIASS [RPB8] | 1.22 ± 0.053
LFQELSKVVDDMPSLRL [GRR1] | 3.2 ± 0.18
LFQRQKLHEFYLLISKE [IRR1] | 2.69 ± 0.12
LFRIFSMSEEFKYVSVR [BRR2] | 2.39 ± 0.14
LFSEKTIRYLMQKQHEM [SNF6] | 2.63 ± 0.044
LGAIEQILIFAADTSIV [YJL039C/NUP192] | 1.47 ± 0.09
LGAVAGLIPYPHHNQSP [RET1] | 2.65 ± 0.094
LGHTKAALGEVASMELK [SIR2] | 2.79 ± 0.085
LGIEAARYSIIREINYT [RPO31] | 1.76 ± 0.13
LGKQSSSLLSRLISSKM [FAS2] | 2.98 ± 0.065
LGKRINSAVNNAISNTQ [SRP54] | 2.46 ± 0.099
LGKRSILAAAHRDAYSG [PRE2] | 2.93 ± 0.2
LGKYEFSKILPAALDGL [ESC2] | 2.28 ± 0.055
LGLCCLLDVKLAIDNMY [YCG1] | 1.52 ± 0.045
LGLLLPIAASTDLPIET [RPN1] | 1.67 ± 0.049
LGNSIVKESNNYYSNKS [REC8] | 2.68 ± 0.15
LGRLVKAGKITTIEEIF [RPS2] | 2.03 ± 0.099

Sequence | protein stability index
LGRTGSRGGVTQVRVEF [RPS28A] | 3.29 ± 0.053
LGTLVNQKTSAVAALTE [RPL8A] | 2.37 ± 0.095
LGTVQREIESLIAEETN [SMC3] | 2.79 ± 0.18
LGVIHKGNLLEGKKVMA [RPN2] | 1.37 ± 0.07
LHKIFYKVLKNNGLPEC [YCG1] | 1.68 ± 0.045
LHKLELKAKNQEEEGEL [DSN1] | 3.14 ± 0.17
LHKNFESENFKIIALQP [RGR1] | 2.56 ± 0.076
LHKRQQFSESTHNDIDS [YJL039C/NUP192] | 2.9 ± 0.081
LHYTPIEDLWQFLYEKH [RPC82] | 2.24 ± 0.13
LIELLEKLDVSRSSVCV [YCG1] | 2.44 ± 0.072
LIELSGGQRSLIALSLI [SMC2] | 2.42 ± 0.078
LIETVRQMKDVNAPLPT [RPN2] | 3.12 ± 0.055
LIGCIDEAKDFIVSGTA [PUP3] | 2.59 ± 0.058
LIITRKAFKNNSSKYYI [SMC4] | 2.59 ± 0.083
LILRDFLNNGEVDSASD [RPN3] | 3.07 ± 0.19
LILSGDTTANNGKVQYF [YJL039C/NUP192] | 2.89 ± 0.091
LINLKISPLMKSQYNMV [SRB8] | 1.8 ± 0.085
LIQLQNIFKAEMDSVSK [CSN9] | 2.55 ± 0.08
LIRPSSKVIIKFLQVMQ [RPS22A] | 1.86 ± 0.036
LISIISSVIQNYDIITA [YML103C/NUP188] | 1.81 ± 0.083
LISRLCPNSTGAELRSV [RPT1] | 1.85 ± 0.043
LIVIDVVEGVTFVVEQL [SNU114] | 1.57 ± 0.044
LIYGISDEERDDEDDEH [AAR2] | 3.22 ± 0.11
LKFFLVDENETVLESLG [LIN1] | 3.26 ± 0.27
LKFLYLLDAYSHIESDS [MED1] | 2.46 ± 0.091
LKFMAASEVATHSKLFA [PRP8] | 2.91 ± 0.085

Sequence | protein stability index
LKGLLQELKADSPFSLI [SRP72] | 1.43 ± 0.059
LKKIASIPNLFPTDLEI [SWI1] | 2.59 ± 0.051
LKKLEKFMELERKTLER [SWI3] | 2.95 ± 0.061
LKKLKAMNDACYEKVLE [BRR2] | 3.18 ± 0.074
LKLGLVEYLDVNEENDS [RET1] | 3.11 ± 0.075
LKLSQAFGSSATDISGE [YJR042W/NUP85] | 2.76 ± 0.065
LKNLRKKLNFKLCQAFM [YJR042W/NUP85] | 2.19 ± 0.089
LKNVNKRAFENFKKFNE [SMC3] | 2.23 ± 0.086
LKQEGAANKTVVVVGTV [RPL18A] | 2.94 ± 0.27
LKSSLADVLSILAMTYS [RPN1] | 1.7 ± 0.062
LKSTKHSISEAENMLEE [SMC4] | 3.06 ± 0.081
LKTFHFAGVASMNVTLG [RPO31] | 2.17 ± 0.081
LKVLSGDEGYNEDMVRR [SNF12] | 3.48 ± 0.13
LKVTKKHGAKKVAKRTK [RPL27A] | 3.37 ± 0.13
LKYSKRRSLKKQGRIKN [CSN12] | 3.01 ± 0.064
LLAQLNGTVNNNSALSN [RPT3] | 3.23 ± 0.25
LLATKQHDSSANEDEEE [CSN12] | 2.85 ± 0.12
LLCDKAQKNTQSYGGRP [PRE5] | 3.17 ± 0.14
LLDKYGKTGLSNMILGS [YML103C/NUP188] | 2.34 ± 0.078
LLDRILPKLKATGHRVL [SNF2] | 2.57 ± 0.1
LLERTREIHNEAESQLR [FAS2] | 2.97 ± 0.12
LLIDQFSPVISQSLTSI [SWI1] | 1.64 ± 0.074
LLIIRSLKNTDALLNST [YJL039C/NUP192] | 2.97 ± 0.086
LLKDDTYQLCVRLRSNV [RPN3] | 1.47 ± 0.076
LLKKELLTIEPKLKEAT [SMC2] | 3.22 ± 0.052
LLKLTKVFIRESLSLKN [YML103C/NUP188] | 1.72 ± 0.1

Sequence | protein stability index
LLLSRVRADDLSTRFNI [RRP43] | 3.24 ± 0.091
LLMRLEGNYRNLNNLKQ [RPB8] | 3.29 ± 0.14
LLNEWSHNVDELLEHIE [RPN5] | 2.57 ± 0.12
LLPTNNGQPLNQNFSLT [GRR1] | 3.06 ± 0.058
LLRALKTNEESAKMILL [PRP8] | 3.05 ± 0.099
LLRLASKSTSMKLSMPP [POP1] | 2.75 ± 0.064
LLRQKIEQCKHPLHELI [ISW2] | 1.37 ± 0.088
LLRSVLVLLELVSSGDR [YML103C/NUP188] | 1.84 ± 0.23
LLSDPTITIKSYHLWPS [PRP8] | 2.33 ± 0.063
LLTLTNAANVPVENIWA [RPP1A] | 2.12 ± 0.081
LLTNDESAFENLMGNRN [SNF12] | 2.96 ± 0.14
LLTNFHGMDFTTDKLRS [RPS1A] | 2.52 ± 0.1
LLWLVLIHPENFTCNRK [SWI1] | 1.9 ± 0.056
LMTFNAETKSYDSRGVG [YLR335W/NUP2] | 2.19 ± 0.063
LMVFNDDTKNQDSMSKG [YGR119C/NUP57] | 3.04 ± 0.08
LNAELESKLIPQENDLE [SMC3] | 3.12 ± 0.1
LNATKISPSAPSKDSFT [YAR002W/NUP60] | 2.8 ± 0.068
LNDEYNYPQLTEDILKE [YCS4] | 2.91 ± 0.15
LNDLNHLLVQLQKNDVY [REC8] | 2.52 ± 0.051
LNDRFQTLSSHLEALQP [PGD1] | 2.64 ± 0.04
LNDRQEEISRLQRDLIQ [YIL149C/MLP2] | 2.72 ± 0.11
LNEAPFPEENIIDAKTR [MCD1] | 3.12 ± 0.078
LNELKAIKDKLEQDLHF [YIL149C/MLP2] | 3 ± 0.07
LNENARELEQIKPKIAL [SNF12] | 3.23 ± 0.3
